This is an account of results in PMC3824679 (Cell Death & Disease, 2013).

The experiment has as its target T1, GST-RanBP2-M1_(900–1826) (human, UniProt P49792 900-1826).
T1 sequence (looked up): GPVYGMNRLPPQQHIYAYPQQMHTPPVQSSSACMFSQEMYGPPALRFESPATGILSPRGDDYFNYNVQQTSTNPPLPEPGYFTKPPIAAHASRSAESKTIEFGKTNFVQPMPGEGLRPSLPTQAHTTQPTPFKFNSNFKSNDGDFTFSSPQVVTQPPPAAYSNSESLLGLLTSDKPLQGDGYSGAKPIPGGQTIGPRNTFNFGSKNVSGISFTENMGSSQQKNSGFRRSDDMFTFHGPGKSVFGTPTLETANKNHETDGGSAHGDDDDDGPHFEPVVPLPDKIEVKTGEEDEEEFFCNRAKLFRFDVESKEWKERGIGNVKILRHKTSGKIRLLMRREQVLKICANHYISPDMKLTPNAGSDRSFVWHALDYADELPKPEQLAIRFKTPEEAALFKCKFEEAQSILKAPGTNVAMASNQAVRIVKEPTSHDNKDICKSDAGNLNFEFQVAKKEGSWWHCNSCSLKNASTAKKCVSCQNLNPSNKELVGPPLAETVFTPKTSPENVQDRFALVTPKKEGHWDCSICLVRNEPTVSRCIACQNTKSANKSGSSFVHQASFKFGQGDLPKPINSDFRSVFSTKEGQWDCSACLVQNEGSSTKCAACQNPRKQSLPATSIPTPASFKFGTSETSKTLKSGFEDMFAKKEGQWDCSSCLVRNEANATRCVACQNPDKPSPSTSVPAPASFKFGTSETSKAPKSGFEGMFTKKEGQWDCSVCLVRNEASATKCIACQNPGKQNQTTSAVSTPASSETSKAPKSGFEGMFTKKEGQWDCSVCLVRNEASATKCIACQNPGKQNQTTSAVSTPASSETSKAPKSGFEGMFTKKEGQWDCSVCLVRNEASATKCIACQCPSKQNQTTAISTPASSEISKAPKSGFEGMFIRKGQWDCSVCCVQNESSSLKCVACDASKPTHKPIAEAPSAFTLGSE
Nature of the experiment: pull-down.

B1: His-Imp-β1-N2_(1–650) (domain or fragment, human, UniProt Q14974 1-650, looked up)
chain: MELITILEKTVSPDRLELEAAQKFLERAAVENLPTFLVELSRVLANPGNSQVARVAAGLQIKNSLTSKDPDIKAQYQQRWLAIDANARREVKNYVLQTLGTETYRPSSASQCVAGIACAEIPVNQWPELIPQLVANVTNPNSTEHMKESTLEAIGYICQDIDPEQLQDKSNEILTAIIQGMRKEEPSNNVKLAATNALLNSLEFTKANFDKESERHFIMQVVCEATQCPDTRVRVAALQNLVKIMSLYYQYMETYMGPALFAITIEAMKSDIDEVALQGIEFWSNVCDEEMDLAIEASEAAEQGRPPEHTSKFYAKGALQYLVPILTQTLTKQDENDDDDDWNPCKAAGVCLMLLATCCEDDIVPHVLPFIKEHIKNPDWRYRDAAVMAFGCILEGPEPSQLKPLVIQAMPTLIELMKDPSVVVRDTAAWTVGRICELLPEAAINDVYLAPLLQCLIEGLSAEPRVASNVCWAFSSLAEAAYEAADVADDQEEPATYCLSSSFELIVQKLLETTDRPDGHQNNLRSSAYESLMEIVKNSAKDCYPAVQKTTLVIMERLQQVLQMESHIQSTSDRIQFNDLQSLLCATLQNVLRKVQHQDALQISDVVMASLLRMFQSTAGSGGVQEDALMAVSTLVEVLGGEFLKYMEAF
With B1, the binding result is “binds”.
